In the DeepSol protein solubility set:

test: soluble on expression in E. coli; label from the status in PepcDB or PDB records

| Sequence | soluble on expression in E. coli |
| --- | --- |
| MASESAVKDSQPSLDLASATSGDKIVTAQENGKAPDGQTVAGEVMGPQRPRSNSGRELTDEEILASVMIKNLDTGEEIPLSLAEEKLPTGINPLTLHIMRRTKEYVSNDAAQSDDEEKLQSQPTDTDGGRLKQKTTQLKKFLGKSVKRAKHLAEEYGERAINKVKSVRDEVFHTDQDDPSSSDDEGMPYTRPVKFKAAHGFKGPYDFDQIKVVQDLSGEHMGAVWTMKFSHCGRLLASAGQDNVVRIWALKNAFDYFNNMRMKYNTEGRVSPSPSQESLSSSKSDTDTGVCSGTDEDPDDKNAPFRQRPFCKYKGHTADLLDLSWSKNYFLLSSSMDKTVRLWHISRRECLCCFQHIDFVTAIAFHPRDDRYFLSGSLDGKLRLWNIPDKKVALWNEVDGQTKLITAANFCQNGKYAVIGTYDGRCIFYDTEHLKYHTQIHVRSTRGRNKVGRKITGIEPLPGENKILVTSNDSRIRLYDLRDLSLSMKYKGYVNSSSQIKASFSHDFTYLVSGSEDKYVYIWSTYHDLSKFTSVRRDRNDFWEGIKAHNAVVTSAIFAPNPSLMLSLDVQSEKSEGNEKSEDAEVLDATPSGIMKTDNTEVLLSADFTGAIKVFVNKRKNVS | not soluble |
| MSLNQIDRLLTIMQRLRDPENGCPWDKEQTFATIAPYTLEETYEVLDAIAREDFDDLRGELGDLLFQVVFYAQMAQEEGRFDFNDICAAISDKLERRHPHVFADSSAENSSEVLARWEQIKTEERAQKAQHSALDDIPRSLPALMRAQKIQKRCANVGFDWTTLGPVVDKVYEEIDEVMYEARQAVVDQAKLEEEMGDLLFATVNLARHLGTKAEIALQKANEKFERRFREVERIVAARGLEMTGVDLETMEEVWQQVKRQEIDLEGGSHHHHHH | soluble |
| MSPQYDAIIVGGGHNGLTCGAYLARAGVKVLVVERQPMVGGAAVTGEIAPGYRSSLASYYQGLLQPKVILDLELQKYGFEVIPAAPTVFALEGGRTFTLWDDPEKFAAEIAKFSNVDGAAYAGYRAHMLKIAPHMKQLLWEVPVDPASGKIRDLKRLAGFVWRFRKVGPQFYDIYNLLTMSAWDYLSRWFTSDEVKLVLGFFAGGGGANSSLKTPGSAYMLARGIVRDGGTAAGPAGFMKGGMGAISEAIRRSGEAHGMEVRTACPVERILVENGRAVGVRLEGGEEIRSKIVIANATARTTFTKLLDPAELPEEFNRDIRNIRCESTVFRVNLALSALPEAPVFGQTNPQGSIVPQMTVAPNVAYMERAWHQAQGGEIAEAPFLIVKVPSMVDPTLAPEGHHIMNVFGGHAPYTLARGDWDSRREELWGRVLAVLKTQFPDIESRILHRQIMTPLDLERIFDLPNGHVHHGEISADQMFFRRPSPQFADYRSPVDRLYQASASVHPGGGVTGVPGHNAAKVILEDRRKWSLEHHHHHH | soluble |
| MGSDKIHHHHHHMKRMKGIVYGGLLSVVFVMSGCSGSQKEGRDSKEIPVEIVKVAKTVPADTRNYVGTVEEVVSSSISFQVMGNVERVLVGEGQKVREGQLLAVLDKATLENAYNASAASLRQAEDAYARMRTLHENKSLPDMKWVEVESKLEQARSMERISRKNLEDRNLYAPFGGVIGKRMVEAGENVQPGQPVFSLLRIETVNVKIAVPENEVATLGDQAAMIKVAALGGQCFEGKVTEKGIVANPISHTYEAKIRLENPSGALLPGMVCDVRLSGEESVPAITLPNNAVLIANDGGRFVWKVVDGKAKATPVRTGDLTEQGLFILEGLNEGDIVVIGGYQKISEGMRVRAL | not soluble |
| GPGSMNNRHSGSEKTPATQKKDSLAPSATNADITKVKICSGHTRPICHINYSNIIDGTFWLVTSCHDAKPMLRNGETGDWVGTFEGHKGAVYCSVFNEDATRLVTGSGDYSSMVWNAVTGDKLHTWSHPKYIKSCDWCGNKIATGCVDGLVRIFDAQAYDANPVCFDSTEKVNQVKATYFIDHTTMVTACENTIMKWDLRDTSLPYLRKEIPGLNFLEYTHSNSIVAAHEKSISFIDTTSLEIKSSFTTSDDIECASLSPNGQNVAAGSKLKAKEFTVDGTELESHRGHHGPIFHIRWAPDGKSFTSGAEDGMARIWPSHDIIETYDNEN | not soluble |
| MAHHHHHHMQDHMFAKSGVPANGAGLGQNYYTRDLITEVPTIIQIVPVSSEALATQRSPPKGTSDTFKISLDDVEPTAGWLSDRNNASLDICFMHSFGKCYGKIREKDPRTCHQIHVKRNVLDNLRKYYTNPQRNYFCRTMKANVTEKFAQVLSLLARRRIGLRYLEFRTEDIEVTAGSTEYEVQYRLWLVSDVEPQSRSRAQAANILTDNFISSSNLCWDFALTGRCCKGASCPDLHGHVAKALTKDRYVKAALAEMGKKDSLVPPTETTQPGKTPRVCQPSTSAPQQFPPPPPMPQQCASFIVSSPISPPYCFSSLPAASGMSAPSPNPTLAAFPLDMSSLQGTPCFLVDKGSDNVFRLITQSQFASFGNDAS | not soluble |
| MGSDKIHHHHHHMATEIIYMVKDWFEWHDLYKNEPKLQQRLQIVQEYISYSLNLPEPGLIRVVSVCAGDGRDLLGTLSNHPRAKDVYARLVELNPHLVERGQQTIESLGLTKQIEFINGDATLSSNYLGAVPADIVIVCGVFGNLADEAELNRLLANLSFLSKQGAFVIWTRGHSNGIPHSETVRKFFREYGFEEVNFKLTATGDMGVGIHRYLGESLAAPKEQQFFAFTGVPSKAR | not soluble |
| MGSDKIHHHHHHVVAVNRAVFLDRDGVINKDHGYVHQVDDFEYIEGVFEACLALKKMGYKLVVVTNQSGIARGMYSEDQFHSLTEWMDWNFADKGVDLDGIYYCPHHAEKGMGEYKVDCDCRKPKPGMLNDAAKFLKVDLSQSVMVGDKADDMQAAKAAGVPTRILVRSGKVIADSSDATIVLDSIADVPDYLKA | not soluble |
| MDIPQDSYDLVVVGGGTSGVFAAISAARRGLRVALVEASGMLGGTLTQVTLGGICGAWTGTAHTQVVHGLFDEFVHAMRKAQACDGLYSYGHVTALPYEPVKVRYLLDQLLPPNVTTFFHSRLFAVDMEGERIARVHLAGVEGPFSLAARAYVDATGNASLAGLCATPLRRGENGTVQAASSMFRVIGADVDPRVRDVRTEIRLAIEKHNASGQAEAFKRSAVAVYVHPDQRLLHFNATRVYFESTADDALAAALDMSRVETEARKEAFRLVELLKREVDGFANIEIVDLGSSVGVRDSRNIVNDHPLTEAMVRDGDKPANSVAYSAWPIEFHGSNTQTHWEPLEGDRYYGIPYESCLPQGIQNALVIGRAISSTPLAQASCRVTAPCIQMGESAGIAAHELVASSSRTAFSELASMKFILEHHHHHH | not soluble |
| MSLKWNRPAGSLSATLILAHGAGAPMDSPFMERIAELLAAQGIAVARFEFPYMAQRREDGRKRPPNPQAQLLDCWRRVHAQVRETLDGPLALGGKSMGGRMASLLADELGADALVCLGYPFYAAGKPEKPRVAHLAGLRTPTLIVQGERDALGNREAVAGYALAPTIRLHWLAAADHDLKPLKASGLTHEQHLAATAREVAGFLRGLQGH | not soluble |
| MSLSRQRCIIVGASHGGVNLAFALRKEGYEGRITLIDADCNLPYHRPPLSKTHLIANEPAGQLLKPEQGYQKADISLMLGVSVVDVKSKNKQVLLDDGTRHPYTQLVLATGASPITPPIPGIDSAKHLYTIRTADDAHAIATAFKQSEQKRVVVIGGGYVGLETAASLRKSGAVVTVLEREPRLLARVTAPMMSDYFYALHRQHGVEVHNDKNVSEIKTNANENSVVCSDGSEYPADIIIVGVGVRVNTALADKANLEINNGIVVNEANQTSAQDIFAIGDCCAQFNPHYQRWLRLESVQNALDQGKVAAAAICHKAFKTQPVPWFWSDQYNIKLQMVGLSQGYDDVVMRKELDKPDSFSVWYFKGNELLAVDAVNNAKAYVLGTKFINAMEQVDKNKLTDNSAPLSASIIKEFAEGHHHHHH | soluble |
| MYPHIHRYKFESKNTNRHNHKIIGYTDNMIGIEAFHIHAYYGISSYNGHTHYFSGFTGLPIKTENGHIHRIEGILESASDHEHVYRNYTDENIEYISHSILKHAYV | not soluble |
| MFTGLHDILIILFLLVTLKIAQNVDHTKFLQKYGYLTSGDNQLSSESLSDALKNMQRMAGLEETGELDERTIQMMERPRCGHPDVEDHQKSRGKRYAPPQFKWKEKIITYGCKAVGTSTRISLDDLRRTMHQAASQWSELADVEIVESSVKNPMMVISAGRENHYPCTVRFDTKTLAHAFFPTNGQIHINDRVQFAMTNYTERMGANSLYSVVAHEMGHALGFSHSPDIDSVMFAYDTPRKWKFTSMDKYNMRSYYGAKASKKENEEEERKTENEDKRRKTEKDRGRTREHESDDIRPNECRVENPIVVQYRGEYLIFKSQWVWRVSSDWKRLIIKAVPINQLFPGLPNPIDAAVTVGHNLWVFVGEMIYVIYGNHMVHAPLRLSDIGINEKYVDLAYEWHYFNPPAVYIWKGSRYWKLDEKMYHRRVDERYPKDTDLNWARVPKGVHSAFTYEKEIHLLRGNQVFRMNSSRSVFDIADGYPQPLQSFFGFCPRNEKLVLNSSSSHFSLIYATITILILIF | not soluble |
| MGSDKIHHHHHHMSIAIIIATHGVAAEQLLKTTEMLIGEQENVATIDFVSGENAETIMTKYQEKLSTTLAHCDEVLFLVDTWGGSPFNAANRVIGDNTNMDIVTGVNVPMLVETFMARDDNPSLQELVSIALETGRAGVRALKYEEKSAETTALSQPVPEQPQIAVKQQEGNLIVGLARIDDRLIHGQVATRWTKESRVTRIVVVNDDVAKDQVRSTMLKSVAPPGVTAHVVNIEKMIRVYNNPEYANERMMLLFTNPTDVLRLLEAGVDMKSINVGGMAYKDGKKMITSAVAVDDKDIAAFKAIDAMGIELDVRKVSNDSRQYMMDLLKKNNLI | not soluble |
| MSLFPNYEFSFRPIARKFVRSLVTSHGIWEVREAIILRLTDTTGKVGWGEIAPISWFGSETLAQALDFCRQLPEEITQEIIFSIPDDLPACQFGFESALEAMGSGEDVTITNAQFSALLPAGEAALHQWQSLWDEGYRTFKWKIAVGEVAQELRIFDSLTQILPASAKLRLDANGGLSYPEAHLWLQACDNLPVEVEFIEQPLPVEQFSQMLELSEAYPTAIALDESVANLKQLAACYAQGWRDVFVIKPAIAGSPSRLRQFCQQHEIDAVFSSVFETAIARKASLQLAAELSRDNRAVGFGVNHLFHQEAENWLQSLWNNPEGHHHHHH | soluble |
| MTTVTVTTEIPPRDKMEDNSALYESTSAHIIEETEYVKKIRTTLQKIRTQMFKDEIRHDSTNHKLDAKHCGNLQQGSDSEMDPSCCSLDLLMKKIKGKDLQLLEMNKENEVLKIKLQASREAGAAALRNVAQRLFENYQTQSEEVRKKQEDSKQLLQVNKLEKEQKLKQHVENLNQVAEKLEEKHSQITELENLVQRMEKEKRTLLERKLSLENKLLQLKSSATYGKSCQDLQREISILQEQISHLQFVIHSQHQNLRSVIQEMEGLKNNLKEQDKRIENLREKVNILEAQNKELKTQVALSSETPRTKVSKAVSTSELKTEGVSPYLMLIRLRK | not soluble |
| MGFSDLRDKVVIVTGASMGIGRAIAERFVDEGSKVIDLSIHDPGEAKYDHIECDVTNPDQVKASIDHIFKEYGSISVLVNNAGIESYGKIESMSMGEWRRIIDVNLFGYYYASKFAIPYMIRSRDPSIVNISSVQASIITKNASAYVTSKHAVIGLTKSIALDYAPLLRCNAVCPATIDTPLVRKAAELEVGSDPMRIEKKISEWGHEHPMQRIGKPQEVASAVAFLASREASFITGTCLYVDGGLSIRAPISTPELEHHHHHH | soluble |
| MTAETNYFWLNCGYNRWNHNEPLVGQTALFESGAHFNPSQGFRAFKKAKVGDQVIFYQVQTDTGLLGCGEIISVETGAQNKIRVQFRFNEQLKPLTADYLKRSEALEFRMSNMKETLFNQITAEEFDLISGLGKGEIKIPRYFFLAETEEFEPGNQYTIYTHTYNGIKRNGYHFYTQLEEGDNIIFYNRTKNQSVVGIGEVSKHIHEKPPIPGRTNSTVIEVSYEKDITPITLSTLNKHPKLKNLYFLQENAKQAIASMSQAQYDAIIEMSDNNGLKSPFEMVKKPDMLESEKEEALKPFILLVVDRKEEGLKAANDLLQKANANPVITTGHPDFSEDMLYGKYLPNETGALYYREGFITQLMPKKDKSYLVIDNFNRIDTDIFQTYINVLEGYEVTLPRYNKDGNMIKWSRQKDSFYYFNPNWHIVGITYDSLEEIKEKYSEQFLKYTRIVKVKHD | not soluble |
